Here are results for eight molecules from publication PMC12508434.

In one data set the target is LbCas12a (Lachnospiraceae bacterium? (only 'Lb' …, UniProt A0A5S8WF58 1-1228)). Description: SPR.
The target of data set [1] is dCas12a (DNase-dead; LbCas12a implied) (Lachnospiraceae bacterium? (only 'Lb' …, UniProt A0A5S8WF58 1-1228, D832A). Description: EMSA.

With UAAUUUCUACUAAGUGUAGAUAACCUGAUCAAGAUACCCAA (structured_RNA) [P1-CN crRNA], the binding result in the data set with LbCas12a is reported as “binds”. For the molecule CAAUGUCUACUCAGCGUAGAUAACCUGAUCAAGAUACCCAA (structured_RNA) [P1-FL1 crRNA], in the data set with LbCas12a, the binding result is given as “binds”.

On to GAAUGUCUACUAAGUGUAGAUAACCUGAUCAAGAUACCCAA (structured_RNA) [P1-F2 crRNA], for which the binding result with LbCas12a was “binds”. With CAAUGUCUACUAAGUGUAGAUAACCUGAUCAAGAUACCCAA (structured_RNA) [P1-F1 crRNA], the binding result with LbCas12a is “binds”. With UAAUUUCUACAAAACGUAGAUAACCUGAUCAAGAUACCCAA (structured_RNA) [P1-L1 crRNA], the binding result with LbCas12a is “binds”. As to UAAUUUCUACUCAGCGUAGAUAACCUGAUCAAGAUACCCAA (structured_RNA) [P1-L2 crRNA], the binding result with LbCas12a is “binds”.

On to GAAUGUCUACUCAGCGUAGAUAACCUGAUCAAGAUACCCAA (structured_RNA) [P1-FL2 crRNA], for which the binding result in the data set with LbCas12a is reported as “binds”.

B1: P1-CN crRNA + P1 target dsDNA (mixed)
RNA: UAAUUUCUACUAAGUGUAGAUAACCUGAUCAAGAUACCCAA
DNA 1: CTTAGAGTTCTTTAAACCTGATCAAGATACCCAACCAAAC
DNA 2: TGTTGTTTGGTTGGGTATCTTGATCAGGTTTAAAGAACTCTAAG
For B1, the binding result in data set [1] is “binds”.
